Results published in patent publication US20200062843A1 (CRAGE MEDICAL, published 2020).
Where two headings read alike, the source gives them in different places.

Legend:
human CD19 [1] = target: T1, human CD19 (human, UniProt P15391 20-556); test: flow cytometry on K562-CD19 cells
T1 construct: In the killing assay it is also on Daudi and Raji cells; also called K562-CD19; K562 cells stably transfected with human CD19
T1 sequence: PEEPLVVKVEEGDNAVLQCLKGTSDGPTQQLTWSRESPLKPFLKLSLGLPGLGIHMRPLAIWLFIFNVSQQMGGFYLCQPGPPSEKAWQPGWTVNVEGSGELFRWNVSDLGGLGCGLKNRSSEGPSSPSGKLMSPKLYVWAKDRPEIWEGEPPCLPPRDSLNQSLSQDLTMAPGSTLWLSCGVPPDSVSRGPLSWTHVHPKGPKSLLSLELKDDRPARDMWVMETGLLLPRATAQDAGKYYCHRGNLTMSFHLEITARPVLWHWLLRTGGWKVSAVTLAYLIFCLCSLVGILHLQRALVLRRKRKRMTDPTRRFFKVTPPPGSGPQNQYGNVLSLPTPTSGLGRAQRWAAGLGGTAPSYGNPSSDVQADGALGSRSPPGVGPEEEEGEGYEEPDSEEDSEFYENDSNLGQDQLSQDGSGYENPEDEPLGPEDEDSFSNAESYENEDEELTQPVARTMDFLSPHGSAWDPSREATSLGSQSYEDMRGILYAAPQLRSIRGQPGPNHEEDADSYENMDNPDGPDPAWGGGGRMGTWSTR
Protocol: (§1) K562 cells (K562-CD19) stably expressing human CD19 and K562 were used, and cells were harvested, washed with complete growth medium and plated into U-bottom microtiter plates at approximately 1−5×10⁵ cells/well. The gradient-diluted huHD37 scFv_Fc fusion antibody was incubated with K562-CD19/K562 for 30 minutes on ice, and then incubated with FITC-labeled anti-human Fc as a secondary antibody. After two washing steps, the analysis was performed using Guava easyCyte™ HT System, and the experimental data was processed using GraphPad Prism to obtain an EC50.

human CD19 [2] = target: T2, human CD19 (UniProt P15391 20-556); test: FACS cell binding; avid
T2 chain: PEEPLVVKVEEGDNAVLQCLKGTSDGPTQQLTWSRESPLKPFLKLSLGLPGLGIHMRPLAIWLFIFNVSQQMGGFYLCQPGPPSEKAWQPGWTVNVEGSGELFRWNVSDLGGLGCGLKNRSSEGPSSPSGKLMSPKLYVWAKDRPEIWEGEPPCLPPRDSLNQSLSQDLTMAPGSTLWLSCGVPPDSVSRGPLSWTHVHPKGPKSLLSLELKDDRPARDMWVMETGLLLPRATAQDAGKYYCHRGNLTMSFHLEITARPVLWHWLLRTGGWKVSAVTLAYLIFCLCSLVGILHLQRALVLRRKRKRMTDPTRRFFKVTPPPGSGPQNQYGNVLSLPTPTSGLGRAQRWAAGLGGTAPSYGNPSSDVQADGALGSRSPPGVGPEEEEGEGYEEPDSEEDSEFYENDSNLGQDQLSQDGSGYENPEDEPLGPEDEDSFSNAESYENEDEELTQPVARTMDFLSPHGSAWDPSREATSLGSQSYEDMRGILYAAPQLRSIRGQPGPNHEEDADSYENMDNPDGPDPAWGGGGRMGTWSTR

human CD19 [3] = target: T1, human CD19; test: flow cytometry, scFv_Fc on K562-CD19 cells, FITC anti-human Fc
Protocol: as §1
K562 cells stably expressing human CD19 (K562-CD19) and K562 were used, and cells were harvested, washed with complete growth medium, and plated into U-bottom microtiter plates at approximately 1−5×10⁵ cells/well. The gradient diluted scFv_Fc fusion antibody was incubated with K562-CD19/K562 for 30 minutes on ice, and then incubated with FITC-labeled anti-human Fc as a secondary antibody. After two washing steps, the analysis was performed using Guava easyCyte™ HT System, and the experimental data was processed using GraphPad Prism to obtain an EC50.

human CD19 [4] = target: T2, human CD19; test: FACS cell binding; avid

B1: murine antibody HD37 (scFv chimeric with human IgG1 Fc) (Fc fusion)
VH: QVQLQQSGAELVRPGSSVKISCKASGYAFSSYWMNWVKQRPGQGLEWIGQIWPGDGDTNYNGKFKGKATLTADESSSTAYMQLSSLASEDSAVYFCARRETTTVGRYYYAMDYWGQGTTVTVSS
VL: DIQLTQSPASLAVSLGQRATISCKASQSVDYDGDSYLNWYQQIPGQPPKLLIYDASNLVSGIPPRFSGSGSGTDFTLNIHPVEKVDAATYHCQQSTEDPWTFGGGTKLEIKR
notes: also called parental antibody HD37; parental HD37
- binding result (human CD19 [1]): binds

B2: humanized antibody huHD37 (scFv_Fc fusion antibody) (Fc fusion)
scFv: QVQLVQSGAEVKKPGSSVKVSCKASGYTFSSYWMNWVRQAPGQGLEWMGQIWPGDGDTNYNGKFKGRVTITADESTSTAYMELSSLRSEDTAVYYCARRETTTVGRYYYAMDYWGQGTTVTVSSGGGGSGGGGSGGGGSDIVLTQSPASLAVSPGQRATITCKASQSVDYDGDSYLNWYQQKPGQPPKLLIYDASNLVSGVPARFSGSGSGTDFTLTINPVEANDTANYYCQQSTEDPWTFGQGTKVEIKR
notes: also called humanized huHD37; not shown: human IgG1 Fc fragment carried by the eukaryotic expression vector V152
- EC50 (human CD19 [2]): 4.7 nM
- binding result (human CD19 [3]): binds

B3: clone 6B3 (scFv_Fc) (Fc fusion)
scFv: QVQLVQSGAEVKKPGSSVKVSCKASGYTFSSYWINWVRQAPGQGLEWMGQIWPGDGETHYNGKFKGRVTITADESTSTAYMELSSLRSEDTAVYYCARRETTTVGRYYYAMDYWGQGTTVTVSSGGGGSGGGGSGGGGSDIVLTQSPASLAVSPGQRATITCKASQSVDYDGDSYLNWYQQKPGQPPKLLIYDASNLVSGVPARFSGSGSGTDFTLTINPVEANDTANYYCQQSTEDPWTFGQGTKVEIKR
- EC50 (human CD19 [4]): 2.74 nM

B4: clone 8E3 (scFv_Fc) (Fc fusion)
scFv: QVQLVQSGAEVKKPGSSVKVSCKASGYTFSSYWMNWVRQAPGQGLEWMGQIWPGDGDTNYNGKFKGRVTITADESTSTAYMELSSLRSEDTAVYYCARRETTTVGRYYYAMDYWGQGTTVTVSSGGGGSGGGGSGGGGSDIVLTQSPASLAVSPGQRATITCKASHSLDYDGDNYLNWYQQKPGQPPKLLIYDASNLVSGVPARFSGSGSGTDFTLTINPVEANDTANYYCQQSTEDPWTFGQGTKVEIKR
notes: Only the light chain is said to differ from huHD37; not shown: Human Fc fragment of expression vector V152 (and any junction residues to it)
- EC50 (human CD19 [4]): 4.72 nM
- binding result (human CD19 [3]): binds
